B1: library; numbered along this chain (parent)
chain: MNIQIGELAKRTACPVVTIRFYEQEGLLPPPGRSRGNFRLYGEEHVERLQFIRHCRSLDMPLSDVRTLLSYRKRPDQDCGEVNMLLDEHIRQVESRIGALLELKHHLVELREACSGARPAQSCGILQGLSDCVCDTRGTTAHPSD

Variants of B1 are the subject of series [1]. Nature of the series: sfGFP reporter fluorescence (15 h) (µM FITC); higher = higher leak. Conditions: library round: Round 1; ligand: none. The method, then: (§1)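 Cell-free biosensing: 1 µL Echo-assembled CFE reactions with linear PbrR variant templates (5 nM) and pPbrR-sfGFP reporter, with 1 µM Pb, 30 µM Zn or no ligand; endpoint sfGFP fluorescence after 15 h at 30 °C calibrated as µM FITC. Round 1 ML-predicted PbrR mutants; 3 biological replicates.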

Variants of B1 are the subject of series [2]. Kind of series: sfGFP reporter fluorescence (15 h) (µM FITC); higher = stronger transcriptional activation. Conditions: library round: Round 1. The method, then: as §1

± gives the standard deviation of the averaged measurements.

As to MNIQIGELAKRTACPVVTIRFYEQEGLLPPPGRSRGNFRLYGEEHVERLQFIRHCRSLDMPLSDVRTLLSYRKRPDQDCGEVNQLLDEHIRQVESRIGALLELKHHLVELLEACSGARPAQSCGILQGLSDCVCDTRGTTAHPSD [M84Q R111L], the sfGFP reporter fluorescence in series [1] was determined as 0.0624 ± 0.0054; in series [2] (ligand: 1 µM Pb) it was 0.0651 ± 0.0026; in series [2] (ligand: 30 µM Zn), 0.122 ± 0.0058.

MNIQIGELAKRTACPVVTIRFYEQVGLLPPPGRSRGNFRLYGEEHVERLQFIRHCRSLDMPLSDVRTLLSYRKRPDQDCGEVNMLLDEHIRQVESRIGALLELKHHLVELMEACSGARPAQSCGILQGLSDCVCDTRGTTAHPSD [E25V R111M]: the sfGFP reporter fluorescence in series [1] turned out to be 0.063 ± 0.0024; in series [2] (ligand: 1 µM Pb), 0.0654 ± 0.0053; in series [2] (ligand: 30 µM Zn), 0.152 ± 0.0061.

Consider MNIQIGELAKRTACPVVTIRFYEQEGLLPPPGRSRGNFRLYGEEHVERLQFIRHCRSLDMPLSDVRTLLSYRKRPDQDCGEVNMLLDEHIRQVESRIGALLELKHHLVELAEACSGARPAQSCGILQGLSNCVCDTRGTTAHPSD [R111A D131N], for which the sfGFP reporter fluorescence in series [1] is 0.066 ± 0.0013; in series [2] (ligand: 1 µM Pb) it was 0.117 ± 0.018; in series [2] (ligand: 30 µM Zn) it was 0.829 ± 0.15.

Regarding MNIQIGELAKRTACPVVTIRFYEQEGLLPPPGRSRGNFRLYGEEHVERLQFIRHCRSLDMPLSDVRTLLSYRKRPDQDCGEVTMLLDEHIRQVESRIGALLELKHHLNELREACSGARPAQSCGILQGLSDCVCDTRGTTAHPSD [N83T V108N], the sfGFP reporter fluorescence amounted to 0.06328 ± 0.00021 in series [1], 0.0698 ± 0.0061 in series [2] (ligand: 1 µM Pb) and 0.132 ± 0.0091 in series [2] (ligand: 30 µM Zn).

On to MNIQIGELAKRTACPVVTIRFYEQEGLLPPPGRSRGNFRLYGEEHVERLQFIRHCRSLDMPLSDVRTLLSYRKRPDQDCGEVNMLLDEHIRQVESRIGALLELKHHLVELREACSGARPAQSCGILQGLSLCVCATRGTTAHPSD [D131L D135A], for which the values for the sfGFP reporter fluorescence in series [1], in series [2] (ligand: 1 µM Pb) and in series [2] (ligand: 30 µM Zn) were 0.0688 ± 0.0015, 0.0969 ± 0.027 and 0.476 ± 0.055, respectively.

MNIQIGELAKRTACPVVTIRFYEQEGLLPPPGRSRGNFRLYGEEHVERLQFIRHCRSLDMPLSDVRTLLSYRKRPDQDCGEVSMLLDEHLRQVESRIGALLELKHHLVELLEACSGARPAQSCGILQGLSDCVCDTRGTTAHPSD [N83S I90L R111L]: the results for the sfGFP reporter fluorescence in series [1], in series [2] (ligand: 1 µM Pb) and in series [2] (ligand: 30 µM Zn) were 0.063 ± 0.0026, 0.079 ± 0.0099 and 0.205 ± 0.021, respectively.

Take MNIQIGELAKRTACPCVTIRFYEQEGLLPPPGRSRGNFRLYGEEHCERLQFIRHCRSLDMPLSDVRTLLSYRKRPDQDCGEVNMLLDEHIRQVESRIGALLELKHHLVELREACSGARPAQSCGILQGLSDCVCDTRGTTAHPSD [V16C V46C]: the values for the sfGFP reporter fluorescence in series [1], in series [2] (ligand: 1 µM Pb) and in series [2] (ligand: 30 µM Zn) were 0.0646 ± 0.0017, 0.066 ± 0.0025 and 0.0632 ± 0.0019, respectively.

Turning to MNIQIGELAKRTACPVVTIRFYEQEGLLPPPGRSRGNFRLYGEEHVERLQFIRHCRSLDMPLSDVRTLLSYRKRPDQDCGEVTMLLDEHIRQVESRIGALLELKHHLVELREACSGARPAQSCGILQGLSSCVCDTRGTTAHYSD [N83T D131S P143Y], the values for the sfGFP reporter fluorescence in series [1], in series [2] (ligand: 1 µM Pb) and in series [2] (ligand: 30 µM Zn) were 0.0614 ± 0.0015, 0.0782 ± 0.0092 and 0.144 ± 0.014, respectively.

In the case of MNIQIGELAKRTACPVVTIRFYEQEGLLPPPGRSRGNFRLYGEEHVERLQFIRHCRSLDMPLSDVRTLLSYRKRPDQDCGEVNMLLDEHIRQVESRIGALLELKHHLVELREACSGARPAQSCGILQGLSDCVCATRGTTAHFSD [D135A P143F], the sfGFP reporter fluorescence in series [1] turned out to be 0.0621 ± 0.0018; in series [2] (ligand: 1 µM Pb), 0.0718 ± 0.0013; in series [2] (ligand: 30 µM Zn), 0.299 ± 0.028.

In the case of MNIQIGELAKRTACPVVTIRFYEQEGLLPPPGRSRGNFRLYGEEHVERLQFIRHCRSLDMPLSDVRTLLSYRKRPDQDCGEVTMLLDEHIRQVESRIGALLELKHHLVLLREACSGARPAQSCGILQGLSDCVCDTRGTTAHRSD [N83T E109L P143R], the results for the sfGFP reporter fluorescence in series [1], in series [2] (ligand: 1 µM Pb) and in series [2] (ligand: 30 µM Zn) were 0.0641 ± 0.00073, 0.0812 ± 0.0015 and 0.183 ± 0.0048, respectively.

For the variant MNIQIGELAKRTACPVVTIRFYEQEGLLPPPGRSRGNFRLYGEEHVERLQFIRHCRSLDMPLSKVRTLLSYRKRPDQDCGEVNMLLDEHIRQVESRIGALLELKHHLVELREACSGARPAQSCGILQGLSDCVCYTRGTTAHPSD [D64K D135Y], the sfGFP reporter fluorescence in series [1] worked out at 0.149 ± 0.014; in series [2] (ligand: 1 µM Pb) it was 0.386 ± 0.028; in series [2] (ligand: 30 µM Zn), 1.09 ± 0.15.

For MNIQIGELAKRTACPVVTIRFYEQEGLLPPPGRSRGNFRLYGEEHVERLQFIRHCRSLDMPLSDVRTLLSYRKRPDQDCGEVTMLLDEHIRQVESRIGALLELKHHLVELREACSGARPAQSCGILQGLSACVCDTRGTTAHISD [N83T D131A P143I], the sfGFP reporter fluorescence in series [1] stood at 0.0661 ± 0.0015; in series [2] (ligand: 1 µM Pb), 0.088 ± 0.0036; in series [2] (ligand: 30 µM Zn) it was 0.158 ± 0.014.

Take MNIQIGELAKRTACPVVTIRFYEQEGLLPPPGRSRGNFRLYGEEHVERLQFIRHCRSLDMPLSDVRTLLSYRKRPDQDCGEVTMLLDEHIRQVESRIGALLELKHHLLELREACSGARPAQSCGILQGLSCCVCDTRGTTAHPSD [N83T V108L D131C]: the sfGFP reporter fluorescence in series [1] worked out at 0.06218 ± 0.00042; in series [2] (ligand: 1 µM Pb), 0.0745 ± 0.0076; in series [2] (ligand: 30 µM Zn), 0.0858 ± 0.0057.

MNIQIGELAKRTACPVVTIRFYEQEGLLPPPGRSRGNFRLYGEEHVERLQFIRHCRSLDMPLSDVRTLLSYRKRPDQDCGEVTMLLDEHIRQVESRIGALLELKHHLVFLREACSGARPAQSCGILQGLSDCVCDTRGTTAHPSD [N83T E109F]: the sfGFP reporter fluorescence was determined as 0.0638 ± 0.0013 in series [1], 0.0862 ± 0.0036 in series [2] (ligand: 1 µM Pb) and 0.315 ± 0.0065 in series [2] (ligand: 30 µM Zn).

Values taken from the supplement of paper PMC12783771.
